Experiment [1] concerns the target T1, human CAPRIN-1 protein on the cell surfaces of human cancer cell lines and in human cancer tissues (human, UniProt Q14444 2-709).
T1 sequence (looked up): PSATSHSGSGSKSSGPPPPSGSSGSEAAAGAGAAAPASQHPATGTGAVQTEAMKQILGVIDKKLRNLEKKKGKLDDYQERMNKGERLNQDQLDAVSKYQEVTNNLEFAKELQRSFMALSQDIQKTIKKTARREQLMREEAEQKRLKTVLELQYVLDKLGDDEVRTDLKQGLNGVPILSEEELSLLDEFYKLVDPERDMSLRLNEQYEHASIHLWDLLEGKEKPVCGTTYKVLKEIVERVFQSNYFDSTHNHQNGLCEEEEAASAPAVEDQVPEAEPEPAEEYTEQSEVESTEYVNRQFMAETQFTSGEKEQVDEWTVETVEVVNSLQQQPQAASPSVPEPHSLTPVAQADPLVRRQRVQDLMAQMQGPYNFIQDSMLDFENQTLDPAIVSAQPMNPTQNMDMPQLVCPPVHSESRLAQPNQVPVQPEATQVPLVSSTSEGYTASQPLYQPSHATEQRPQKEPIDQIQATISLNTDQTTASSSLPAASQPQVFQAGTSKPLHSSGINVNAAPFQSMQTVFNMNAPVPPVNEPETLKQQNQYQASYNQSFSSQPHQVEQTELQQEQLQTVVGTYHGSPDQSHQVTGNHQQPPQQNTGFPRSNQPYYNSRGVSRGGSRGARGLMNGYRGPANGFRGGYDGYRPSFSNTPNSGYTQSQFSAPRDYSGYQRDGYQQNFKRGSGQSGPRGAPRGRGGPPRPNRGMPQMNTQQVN
Briefly: cell-based or functional assay.

Experiment [2] concerns the target T2, peptide of SEQ ID NO: 69 (partial sequence in the polypeptide of SEQ ID NO: 37) (human).
T2 peptide: QQPQAASPSVPE
Nature of the experiment: ELISA on immobilised synthetic peptides. Here is the method:
Each peptide was dissolved in 0.1M sodium carbonate buffer (pH 9.6) at a concentration of 30 μg/ml, added to a 96-well plate (Nunc, Product No. 436006) at 100 μl per well, and then left to stand at 4° C. overnight. The solution was discarded, 10 mM ethanolamine/0.1M sodium carbonate buffer (PH 9.6) was added at 200 μl per well, and then the plate was left to stand at room temperature for 1 hour. The solution was discarded, the plate was washed twice with PBS (PBST) containing 0.5% Tween20, so that the plate with each peptide immobilized thereto was prepared.
A cell culture supernatant containing the human-chicken chimeric monoclonal antibody (#1) and the mouse monoclonal antibodies (#2, #3, #4, #5, and #6) obtained in Example 4 (2) was added to the plate at 50 μl per well. After 1 hour of shaking at room temperature, the solution was removed, and then the plate was washed three times with PBST. Next, an HRP-labeled anti-human IgG (Invitrogen) antibody diluted 3000- to 4000-fold with PBST (a secondary antibody solution) was added to each well of the human-chicken chimeric monoclonal antibody and an HRP-labeled anti-mouse IgG (Invitrogen) antibody diluted 3000- to 4000-fold with PBST (a secondary antibody solution) was added to each well of the mouse monoclonal antibody, at 50 μl per well, and then the solution was removed, followed by six times of washing with PBST.
A TMB substrate solution (Thermo) was added at 100 μl per well, and the plate was left to stand for 15 to 30 minutes for coloring reaction. After color development, 1N sulfuric acid was added at 100 μl per well to stop the reaction and then absorbances at 450 nm and 595 nm were measured using an absorption spectrometer. As a result, the polypeptide of SEQ ID NO: 37 was identified as a CAPRIN-1 partial sequence that is recognized by all of the anti-CAPRIN-1 monoclonal antibodies #1 to #6. Furthermore, the peptide of SEQ ID NO: 69 was identified as a partial sequence in the above polypeptide of SEQ ID NO: 37, which is recognized by the monoclonal antibodies #1, #4, and #5. […]

B1: human-chicken chimeric antibody #1 having the chicken monoclonal antibody #1 variable region (antibody, V domains shown)
VH: AVTLDESGGGLQMSRGGLSLVCKASGFDFSSYQMNWIRQAPGKGLEFVAAINKFGNSTGHGAAVKGRVTISRDNGQSTVRLQLNNLRAEDTAIYFCTKHAYGYCGSGTWCAAGEIDAWGHGTEVIVSS
VL: QAASTQPSSVSANPGETVEITCSGGGSYSYGWFQQKSPGSAPVTVIYYNNKRPSDIPSRFSGSKSGSTGTLTITGVQADDEAVYYCGSGDSTDTAVFGAGTTLTVLG
notes: also called anti-CAPRIN-1 antibody #1; human-chicken chimeric monoclonal antibody (#1); not shown: human IgG1 H-chain constant region; human IgG1 L-chain constant region
For B1, in experiment [1], the “cytotoxic activity (ADCC) against A549” value was 36.3%, the “cytotoxic activity (ADCC) against ACHN” value was 26%, the “cytotoxic activity (ADCC) against AML5” value is 13.1% and the “cytotoxic activity (ADCC) against Caki-1” value came to 27%. Also, in experiment [1], the “cytotoxic activity (ADCC) against KYSE180” value is 27.6%, the “cytotoxic activity (ADCC) against MDA-MB-157” value was 40%, the “cytotoxic activity (ADCC) against MNK28” value was found to be 21.7% and the “cytotoxic activity (ADCC) against MNK45” value was determined as 25.3%. Further, in experiment [1], the “cytotoxic activity (ADCC) against QG56” value was determined as 33%, the “cytotoxic activity (ADCC) against Ramos” value was 11.7%, the “cytotoxic activity (ADCC) against SW480” value was 26.9% and the “cytotoxic activity (ADCC) against SW756” value was 29.7%. In experiment [1], the “cytotoxic activity (ADCC) against T24” value was 25.6%, the “cytotoxic activity (ADCC) against T98G” value stood at 18% and the “cytotoxic activity (ADCC) against U373” value is 23.3%. Further, in experiment [2], the binding result is on record as “binds”.

Source of the values: patent US20120301476A1 (TORAY INDUSTRIES, published 2012).
